# Several values for one entry are separate records, joined by “and”; a condition that tells them apart may be missing. Equal entries are not always repeated. No end group written: not given here.
# Legend:
# [1] = SHG imaging and spectral analysis of peptide particles; type: physicochemical
# From the text: (§1) We acquired SHG images using a commercial laser scanning microscopic imaging system (Zeiss LSM 510 META, Jena, Germany) coupled to a mode-locked femtosecond Ti: sapphire laser (Mai-Tai broadband, Spectra-Physics), tunable from 710 nm to 990 nm. To achieve spectral analysis and detect the SHG signal, we used the META detector with 32-gated photon counting module.
# To test whether the amyloid-like peptides of the present invention are SHG-active, we first investigated a hexamer peptide, Ac-LIVAGK-NH2, (LK6) (SEQ ID NO: 27). Peptide particles deposited on a glass microscope slide were examined under an SHG imaging system. Instrument details can be found in our previous work. During the whole experiments, only the backscattered geometry was employed because it is the only suitable configuration for in vivo imaging. We chose collagen I as a control. For more than a decade it has been shown that SHG microscopy can visualize supramolecular assembly of collagen in tissues. […] The fine structures of collagen and peptide particles can be clearly seen under SHG and scanning electron microscopy (SEM, FIG. 1a insert, 1b and 1c).
# We further characterized LK6 peptide. […] When excited at 810 nm, LK6 emitted a sharp SHG peak at 405 nm (FIG. 2a). We then examined the excitation wavelength tunability of SHG signals from LK6 peptide. In FIG. 2b, as the excitation wavelength was increased from 810 to 890 nm, the wavelength of the SHG signals from the LK6 peptide particles increased from 405 to 445 nm respectively. Biological samples, such as cells and tissues, are known to have auto-fluorescence. With excitation wavelength tunability, we can better avoid auto-fluorescence. In addition, we can further increase penetration depth in tissues by simply increasing excitation wavelength. […] The band width (full width at half-maximum of Gaussian distribution, FWHM) was narrow (˜10 nm) and it obeys a relationship to the corresponding wavelength profile of the fundamental beam (˜15 nm). Moreover, we measured the dependence of the output signal on irradiation intensity by varying the 850 nm excitation intensity. […] (1)
# HeLa cells [2] = test: MTS cytotoxicity test, HeLa cells; type: cell-based, human; details: 48 h, 0.1 to 1000 μg/mL
# Procedure: (§2) In order to use LK6 for bioimaging applications, such as monitoring cells and in vivo imaging, we assessed the cytotoxicity of LK6 by the MTS test. The MTS test was applied to two human cell lines, HeLa and primary human dermal fibroblasts (HDF). The toxicity of LK6 was measured at 0.1, 1, 10, 100 and 1000 μg/mL. Cells were exposed to cell culture media containing LK6 solution for 48 h. […] Calcein AM can penetrate cell membrane and be converted to cell membrane impermeable green fluorescent calcein, while red fluorescent EthD-1 is excluded by the intact cell membrane of live cells.
# (§3) We cultured both HeLa and human dermal fibroblasts in DMEM supplemented with 10% fetal bovine serum and 1% penicillin/streptomycin (Life technologies, Singapore).
# (§4) In order to use LK6 for bioimaging applications, such as in vitro monitoring cells and in vivo imaging the whole animal, we assessed the cytotoxicity of LK6 by the MTS test and live/dead assay with two human cell lines, human epithelial carcinoma cells (HeLa) and primary human dermal fibroblasts (HDF).
# HeLa cells [3] = test: Calcein AM/EthD-1 live/dead staining, HeLa cells; type: cell-based, human; details: 48 h, 1 and 1000 μg/mL
# Procedure: (§5) (b) Cytotoxicity determined by Calcein AM/EthD-1 (live/dead, green/red) staining method after 48 h treated with 1 and 1000 μg/mL LK6 peptide solutions using non-treated cells as control.
# as §2, §4
# [4] = at 12 mM, ref [18]; cited from earlier work
# [5] = tested on: primary human dermal fibroblasts (HDF); test: MTS cytotoxicity test, human dermal fibroblasts; type: cell-based; details: 48 h, 0.1 to 1000 μg/mL
# Procedure: as §2, §3, §4
# [6] = tested on: primary human dermal fibroblasts (HDF); test: Calcein AM/EthD-1 live/dead staining, HDF cells; type: cell-based; details: 48 h, 1 and 1000 μg/mL
# Procedure: as §5, §2, §4
# [7] = Powder SHG efficiency (Kurtz and Perry powder technique, sucrose standard); type: physicochemical; details: relative to sucrose; average ± standard deviation
# From the text: as §1
# All these peptides are SHG-active. We used a powder technique developed by Kurtz and Perry to evaluate the SHG efficiency of these second-order nonlinear optical materials. Sucrose, having a relatively modest nonlinearity, was chosen as a standard to evaluate second harmonic generation efficiencies. […] The efficiency of LD6 and IK3 were even three times higher than that of sucrose. These may due to their molecular structures. LD6 is known to form hydrogel at much lower concentrations compared to LK6. The trimer IK3 has larger dipole moment compared to LK6. […] This agrees with the previous findings. In Table 1, all the tested amyloid-like peptides were SHG-active with some showing even higher SHG efficiency than collagen subtypes. This provides a broad spectrum of materials as second harmonic probes.
# [8] = Hyper Rayleigh Scattering, ref [19]; cited from earlier work
Substance,Hydrogel formation [4],Powder SHG efficiency I^2ω/I^2ω(sucrose) [7],other results
"Ac-LIVAGK-NH2 [LK6, Ac-LIVAGK-NH2]",self-assembled into hydrogels,0.95 ± 0.19,SHG peak emission wavelength ([1]; excitation 810 nm): 405 nm; SHG band width (FWHM of Gaussian distribution) ([1]; excitation 850 nm): ~10 nm; SHG emission maximum (Gaussian fit) ([1]; excitation 850 nm): 425 nm; SHG signal wavelength ([1]; excitation 890 nm): 445 nm and 450 nm; Cell viability (MTS) (HeLa cells [2]): either equivalent to or even higher than that of untreated cells; Cytotoxicity by live/dead staining (HeLa cells [3]): no toxicity; Cell viability (MTS) [5]: either equivalent to or even higher than that of untreated cells; Cytotoxicity by live/dead staining [6]: no toxicity
DFNKF (listed as Homo sapiens) [DF5],self-assembled into hydrogels,0.89 ± 0.33,–
GGG,–,–,First hyperpolarizability β [8]: about 0.087 ×10-30 esu
GGVVIA (listed as Homo sapiens) [GA6],self-assembled into hydrogels,1.52 ± 0.43,–
"ILVAGS (Ac-ILVAGS) [IS6, designed synthetic hexamer, neutral, acetylated at the N terminus]",self-assembled into hydrogels,1.96 ± 0.58,–
IVK [IK3],self-assembled into hydrogels,3.31 ± 0.57,–
KLVFFAE (listed as Homo sapiens) [KE7],self-assembled into hydrogels,3.18 ± 0.67,–
"LIVAGD (Ac-LIVAGD) [LD6, designed synthetic hexamer, negatively charged, acetylated at the N terminus]",self-assembled into hydrogels,3.06 ± 0.65,–
NFGAIL (listed as Homo sapiens) [NL6],self-assembled into hydrogels,0.76 ± 0.21,–
PPG,–,–,First hyperpolarizability β [8]: about 0.087 ×10-30 esu
"Type I: human collagen subtype I, control and endogenous SHG probe",–,1.23 ± 0.36,First hyperpolarizability β [8]: 1250±20 ×10-30 esu
Type II: human collagen subtype II,–,0.41 ± 0.13,–

# Reference: patent US10105454B2, “Ultrashort peptides as exogenous second harmonic probes for bioimaging applications” (Agency for Science, Technology and Research, priority 2014, dated 2018)
